In PMC7467689:

Legend:
[1] = molecular target: coat protein of ssRNA bacteriophage AVE016 (uncultured ssRNA bacteriophage AVE016 (metagenome-derived)); test: crystal structure
[2] = molecular target: coat protein of ssRNA bacteriophage EMS014 (uncultured ssRNA bacteriophage EMS014 (metagenome-derived)); test: crystal structure

| Substance | stoichiometry N [1] [CP monomers] | stoichiometry N [2] |
| --- | --- | --- |
| coat protein of ssRNA bacteriophage AVE016 (natural protein) | 210 |  |
| coat protein of ssRNA bacteriophage EMS014 (natural protein) |  | 2 |
